Assay results: PMC5430633, “Phosphorylation of the mitochondrial autophagy receptor Nix enhances its interaction with LC3 proteins” (Scientific Reports, 2017)

Biological target: LC3B (UniProt Q9GZQ8)
Assay: NMR titration of labelled LC3B
Settings: reference: unphosphorylated peptide P0; sites S34,S35

KD: stronger; reference ~100
Substance: Nix (from UniProt O60238) pS34 pS35 peptide P2
